Test results reported in the RNAGym collection of RNA variant scans (doi:10.1093/molbev/msab373).

B1: Azoarcus group I ribozyme (parent)
chain: GUGCCUUGCGCCGGGAAACCACGCAAGGGAUGGUGUCAAAUUCGGCGAAACCUAAGCGCCCGCCCGGGCGUAUGGCAACGCCGAGCCAAGCUUCGGCGCCUGCGCCGAUGAAGGUGUAGAGACUAGACGGCACCCACCUAAGGCAAACGCUAUGGUGAAGGCAUAGUCCAGGGAGUGGCGAAAGUCACACAAACCGG

Variants of: B1
Experiment: reverse-splicing fitness (ratio to wild type); higher = more active; in vitro selection; Mg2+ level not given
Outline: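 An in vitro group I ribozyme library with randomized positions was T7-transcribed and gel-purified. In triplicate, 10 pmol RNA in EPPS pH 7.5 was reacted with 50 pmoles of a 30-nt RNA substrate for 1 h at 37 °C across several added MgCl2 levels (1–48 mM), then stopped with EDTA. Products were reverse transcribed from a substrate-complementary primer, PCR-amplified and sequenced (HiSeq 4000). Fitness is a variant's read proportion after selection over that before, normalised to wild type.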

Row | Variant | reverse-splicing fitness
1 | C82A A111G A120U A145U C150U | 0.0232
2 | C82A A111G A120U A145U C150U C169A | 0.00329
3 | C82A A111G A120U A145U C150U C169A U176A | 0.00237
4 | C82A A111G A120U A145U C150U C169A U176C | 0.00235
5 | C82A A111G A120U A145U C150U C169A U176G | 0.00171
6 | C82A A111G A120U A145U C150U C169G | 0.00324
7 | C82A A111G A120U A145U C150U C169G U176A | 0.00294
8 | C82A A111G A120U A145U C150U C169G U176C | 0.00298
9 | C82A A111G A120U A145U C150U C169G U176G | 0.00208
10 | C82A A111G A120U A145U C150U C169U | 0.00376
11 | C82A A111G A120U A145U C150U C169U U176A | 0.00273
12 | C82A A111G A120U A145U C150U C169U U176C | 0.00305
13 | C82A A111G A120U A145U C150U C169U U176G | 0.00222
14 | C82A A111G A120U A145U C150U U176A | 0.00864
15 | C82A A111G A120U A145U C150U U176C | 0.0108
16 | C82A A111G A120U A145U C150U U176G | 0.00398
17 | C82A A111G A120U A145U C169A | 0.00232
18 | C82A A111G A120U A145U C169A U176A | 0.00218
19 | C82A A111G A120U A145U C169A U176C | 0.00249
20 | C82A A111G A120U A145U C169A U176G | 0.00145
21 | C82A A111G A120U A145U C169G | 0.00329

Row | Variant | reverse-splicing fitness
22 | C82A A111G A120U A145U C169G U176A | 0.00272
23 | C82A A111G A120U A145U C169G U176C | 0.00235
24 | C82A A111G A120U A145U C169G U176G | 0.00177
25 | C82A A111G A120U A145U C169U | 0.00422
26 | C82A A111G A120U A145U C169U U176A | 0.00277
27 | C82A A111G A120U A145U C169U U176C | 0.00256
28 | C82A A111G A120U A145U C169U U176G | 0.00199
29 | C82A A111G A120U A145U U176A | 0.00893
30 | C82A A111G A120U A145U U176C | 0.0146
31 | C82A A111G A120U A145U U176G | 0.00433
32 | C82A A111G A120U C150A | 0.00855
33 | C82A A111G A120U C150A C169A | 0.00447
34 | C82A A111G A120U C150A C169A U176A | 0.00499
35 | C82A A111G A120U C150A C169A U176C | 0.00319
36 | C82A A111G A120U C150A C169A U176G | 0.00194
37 | C82A A111G A120U C150A C169G | 0.00463
38 | C82A A111G A120U C150A C169G U176A | 0.00908
39 | C82A A111G A120U C150A C169G U176C | 0.00412
40 | C82A A111G A120U C150A C169G U176G | 0.00222
41 | C82A A111G A120U C150A C169U | 0.00375
42 | C82A A111G A120U C150A C169U U176A | 0.00585

Row | Variant | reverse-splicing fitness
43 | C82A A111G A120U C150A C169U U176C | 0.00484
44 | C82A A111G A120U C150A C169U U176G | 0.00235
45 | C82A A111G A120U C150A U176A | 0.00595
46 | C82A A111G A120U C150A U176C | 0.00802
47 | C82A A111G A120U C150A U176G | 0.00282
48 | C82A A111G A120U C150G | 0.00849
49 | C82A A111G A120U C150G C169A | 0.00678
50 | C82A A111G A120U C150G C169A U176A | 0.00738
51 | C82A A111G A120U C150G C169A U176C | 0.00609
52 | C82A A111G A120U C150G C169A U176G | 0.0031
53 | C82A A111G A120U C150G C169G | 0.00649
54 | C82A A111G A120U C150G C169G U176A | 0.00567
55 | C82A A111G A120U C150G C169G U176C | 0.0034
56 | C82A A111G A120U C150G C169G U176G | 0.00237
57 | C82A A111G A120U C150G C169U | 0.00601
58 | C82A A111G A120U C150G C169U U176A | 0.00322
59 | C82A A111G A120U C150G C169U U176C | 0.00511
60 | C82A A111G A120U C150G C169U U176G | 0.00249
61 | C82A A111G A120U C150G U176A | 0.00446
62 | C82A A111G A120U C150G U176C | 0.00582
63 | C82A A111G A120U C150G U176G | 0.0031

Row | Variant | reverse-splicing fitness
64 | C82A A111G A120U C150U | 0.0201
65 | C82A A111G A120U C150U C169A | 0.00487
66 | C82A A111G A120U C150U C169A U176A | 0.00534
67 | C82A A111G A120U C150U C169A U176C | 0.00346
68 | C82A A111G A120U C150U C169A U176G | 0.00235
69 | C82A A111G A120U C150U C169G | 0.00566
70 | C82A A111G A120U C150U C169G U176A | 0.00869
71 | C82A A111G A120U C150U C169G U176C | 0.00437
72 | C82A A111G A120U C150U C169G U176G | 0.00175
73 | C82A A111G A120U C150U C169U | 0.0051
74 | C82A A111G A120U C150U C169U U176A | 0.00475
75 | C82A A111G A120U C150U C169U U176C | 0.00428
76 | C82A A111G A120U C150U C169U U176G | 0.00221
77 | C82A A111G A120U C150U U176A | 0.00851
78 | C82A A111G A120U C150U U176C | 0.0108
79 | C82A A111G A120U C150U U176G | 0.00388
80 | C82A A111G A120U C169A | 0.00261
81 | C82A A111G A120U C169A U176A | 0.00268
82 | C82A A111G A120U C169A U176C | 0.00316
83 | C82A A111G A120U C169A U176G | 0.00152
